Experimental data taken from publication PMC7045643, “Allosteric inhibition of CRISPR-Cas9 by bacteriophage-derived peptides” (Genome Biology, 2020).

Target: Streptococcus pyogenes Cas9 (SpCas9) protein, wild type (Streptococcus pyogenes) (UniProt Q99ZW2)

Work on “M13 phage major coat protein G8P periplasmic domain peptide (M13 G8PPD)” yielded an inhibition of the in vitro DNA cleavage activity of 50 nM SpCas9, peptide added before sgRNA (IC50) of 5 µM.
